The record followed here is patent US10577424 (BEIJING MABWORKS BIOTECH, dated 2020).

By EC50 (read off the curve) is commonly meant the concentration that produces a half-maximal response. For orientation: Kd means the free concentration of one partner at which half of the binding sites on the other are occupied at equilibrium, for simple one-to-one binding.

Read-outs that look alike come from different tables or passages of the source.

Assay [1] concerns the target T1, monkey VISTA (ECD)-his (Sino Biological, Cat #: 90801-K08H) (cynomolgus monkey).
T1 construct: extracellular domain; Bought protein; also called cynoVISTA(ECD)-his; cynomolgus VISTA (ECD)-his
Description: ELISA, plate coated with monkey VISTA (ECD)-his, OD450 [panel B].

For assay [2], the target named is T2, human VISTA (ECD)-his (Sino Biological, Cat #:13482-H08H) (human, UniProt Q9H7M9 33-194).
T2 construct: extracellular domain; Bought protein; also called hVISTA(ECD)-his; recombinant human VISTA(ECD)-his; not shown: his tag
T2 sequence (looked up): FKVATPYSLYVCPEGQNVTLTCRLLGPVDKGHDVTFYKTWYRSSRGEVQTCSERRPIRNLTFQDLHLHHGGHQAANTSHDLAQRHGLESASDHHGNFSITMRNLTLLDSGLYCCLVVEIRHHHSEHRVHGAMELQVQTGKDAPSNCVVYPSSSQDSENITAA
Description: ELISA, plate coated with human VISTA (ECD)-his, OD450 [panel A]. (In general: In an ELISA, binding on a coated surface is turned into a signal by an enzyme label.)

Assay [3] has as its target T1, monkey VISTA (ECD)-his (Sino …). Description: SPR (BIAcore 8K), monkey VISTA (ECD)-his coupled to the chip, antibody injected. As for the experimental part:
(§1) They were also tested in SPR assays for their binding affinities to human and monkey VISTA with the BIAcore™ 8K instrument (GE Life Sciences). Briefly, 100-200 response units (RU) of human VISTA (ECD)-his protein (Sino Biological, CN, Cat #:13482-H08H) or monkey VISTA (ECD)-his protein (Sino Biological, CN, Cat #:90801-K08H) were coupled to CM5 biosensor chips (Cat #: BR-1005-30, GE Life Sciences), followed by blocking of un-reacted groups with 1M ethanolamine. Serially diluted antibodies at concentrations ranging from 0.3 µM to 10 µM were injected into the SPR running buffer (HBS-EP buffer, pH7.4, GE Life Sciences; US; Cat #:BR-1006-69) at 30 µL/minute. The binding capacitities were calculated with the RUs of blank controls subtracted. The association rate (k_a) and dissociation rate (k_d) were calculated using the one-to-one Langmuir binding model (BIA Evaluation Software, GE Life Sciences). The equilibrium dissociation constant K_D was calculated as the k_d/k_a ratio.
(In SPR one partner is held on a chip, and binding of the other changes the refractive index at the surface.)

In assay [4] the target is T2, human VISTA (ECD)-his (Sino Biological, …). Put plainly: SPR (BIAcore 8K), human VISTA (ECD)-his coupled to the chip, antibody injected. As for the experimental part:
as §1

Assay [5] has the same target. Put plainly: ELISA, plate coated with human VISTA (ECD)-his, OD450 [panel A]. This is another data set of the same source.
In assay [6] the target is T3, mouse VISTA expressed on HEK293A cells (mouse, UniProt Q9D659 33-308).
T3 construct: also called HEK293A/mouseVISTA; HEK293A/mouse VISTA
T3 sequence: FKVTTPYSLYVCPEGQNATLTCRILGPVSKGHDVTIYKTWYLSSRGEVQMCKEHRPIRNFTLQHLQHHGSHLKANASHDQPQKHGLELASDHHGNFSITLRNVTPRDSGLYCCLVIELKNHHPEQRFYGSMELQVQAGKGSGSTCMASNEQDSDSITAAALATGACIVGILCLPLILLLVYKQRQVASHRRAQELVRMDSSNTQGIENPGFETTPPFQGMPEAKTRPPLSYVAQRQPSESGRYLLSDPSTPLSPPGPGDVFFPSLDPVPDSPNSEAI
Description: FACS on HEK293A/mouse VISTA cells, MFI [panel C].

The target in assay [7] is T1, monkey VISTA (ECD)-his (Sino …). Put plainly: ELISA, plate coated with monkey VISTA (ECD)-his, OD450 [panel B]. This is another data set of the same source.
Assay [8] addresses T4, mouse VISTA-his (Sino Biological, Cat #:511550-M08H) (mouse, UniProt Q9D659 33-191).
T4 construct: extracellular domain; Bought protein; also called muVISTA-his; mouse VISTA (ECD)-his; not shown: his tag
T4 sequence (looked up): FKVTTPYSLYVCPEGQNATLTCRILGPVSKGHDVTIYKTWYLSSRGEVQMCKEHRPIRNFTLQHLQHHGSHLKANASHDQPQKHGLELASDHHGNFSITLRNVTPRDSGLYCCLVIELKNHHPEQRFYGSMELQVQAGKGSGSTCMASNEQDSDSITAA
Put plainly: ELISA, plate coated with mouse VISTA-his, OD450 [panel C].

B1: 161E5-VH2VL2 (antibody, human IgG1, kappa, V domains shown)
VH: QVQLVQSGAEVKKPGASVKVSCKASGYSFTDYYINWVRQAPGQGLEWIARIFPGSGNAYYNEKFKDRATLTVDKSTSTAYMELSSLRSEDTAVYYCARDDSFYGYWYFDVWGQGTTVTVSS
VL: NIMMTQSPATLSVSPGERATLSCKSSQSVLYSSNQKNYLAWYQQKPGQAPRLLIYWASTRESGVPDRFSGSGSGTEFTLTISSLQSEDFAVYYCHQYLSSYTFGGGTKVEIKR
notes: One of the 5 humanized 161E5 antibodies, human IgG1/kappa; also called humanized antibody 161E5-VH2VL2
In the case of B1, the “EC50 (read off the curve)” value in assay [1] and in assay [2] was approximately 0.03 µg/mL throughout.

B2: 161E5-VH2VL3 (antibody, human IgG1, kappa, V domains shown)
VH: QVQLVQSGAEVKKPGASVKVSCKASGYSFTDYYINWVRQAPGQGLEWIARIFPGSGNAYYNEKFKDRATLTVDKSTSTAYMELSSLRSEDTAVYYCARDDSFYGYWYFDVWGQGTTVTVSS
VL: NIMMTQSPATLSVSPGERATLSCKSSQSVLYSSNQKNYLAWYQQKPGQSPRLLIYWASTRESGVPDRFSGSGSGTEFTLTISSLQSEDFAVYYCHQYLSSYTFGGGTKVEIKR
notes: One of the 5 humanized 161E5 antibodies, human IgG1/kappa; also called humanized antibody 161E5VH2VL3
For B2, the Kd was found to be 0.0145 nM in assay [3] and 0.00236 nM in assay [4]. In addition, the “EC50 (read off the curve)” value in assay [1] and in assay [2] was approximately 0.03 µg/mL each time.

B3: 161E5-VH0VL0 (antibody, human IgG1, kappa, V domains shown)
VH: QVQLVQSGAEVKKPGASVKVSCKASGYSFTDYYINWVRQAPGQGLEWMGRIFPGSGNAYYNEKFKDRVTMTRDTSTSTVYMELSSLRSEDTAVYYCARDDSFYGYWYFDVWGQGTTVTVSS
VL: EIVMTQSPATLSVSPGERATLSCKSSQSVLYSSNQKNYLAWYQQKPGQAPRLLIYWASTRESGIPARFSGSGSGTEFTLTISSLQSEDFAVYYCHQYLSSYTFGGGTKVEIKR
notes: One of the 5 humanized 161E5 antibodies, human IgG1/kappa; also called humanized antibody 161E5-VH0VL0
For the molecule B3, the “EC50 (read off the curve)” value in assay [1] and in assay [2] was approximately 0.03 µg/mL throughout.

B4: 161E5-VH3VL2 (antibody, human IgG1, kappa, V domains shown)
VH: QVQLVQSGAEVKKPGASVKVSCKASGYSFTDYYINWVRQRPGQGLEWIARIFPGSGNAYYNEKFKDRATLTVDKSTSTAYMELSSLRSEDTAVYFCARDDSFYGYWYFDVWGQGTTVTVSS
VL: NIMMTQSPATLSVSPGERATLSCKSSQSVLYSSNQKNYLAWYQQKPGQAPRLLIYWASTRESGVPDRFSGSGSGTEFTLTISSLQSEDFAVYYCHQYLSSYTFGGGTKVEIKR
notes: One of the 5 humanized 161E5 antibodies, human IgG1/kappa; also called humanized antibody 161E5-VH3VL2
In the case of B4, the concentration for a half-maximal effect (EC50 (read off the curve)) in assay [1] and in assay [2] was approximately 0.03 µg/mL throughout.

B5: 161E5-VH3VL3 (antibody, human IgG1, kappa, V domains shown)
VH: QVQLVQSGAEVKKPGASVKVSCKASGYSFTDYYINWVRQRPGQGLEWIARIFPGSGNAYYNEKFKDRATLTVDKSTSTAYMELSSLRSEDTAVYFCARDDSFYGYWYFDVWGQGTTVTVSS
VL: NIMMTQSPATLSVSPGERATLSCKSSQSVLYSSNQKNYLAWYQQKPGQSPRLLIYWASTRESGVPDRFSGSGSGTEFTLTISSLQSEDFAVYYCHQYLSSYTFGGGTKVEIKR
notes: One of the 5 humanized 161E5 antibodies, human IgG1/kappa; also called humanized antibody 161E5VH3VL3
Regarding B5, the dissociation constant Kd in assay [3] was 0.0399 nM; in assay [4], 0.0226 nM. Besides, the concentration giving a half-maximal response (EC50 (read off the curve)) in assay [1] and in assay [2] was approximately 0.03 µg/mL throughout.

B6: chimeric 161E5 antibody (antibody, human IgG1, kappa, V domains shown)
VH: QVQLKQSGAELVRPGASVKLSCKASGYSFTDYYINWVKQRPGQGLEWIARIFPGSGNAYYNEKFKDKATLTVEKSSSAAYMQLSSLTSEDSAVYFCARDDSFYGYWYFDVWGTGTTVTVSS
VL: NIMMTQSPSSLAVSAGEKVTMSCKSSQSVLYSSNQKNYLAWYQQKPGQSPKLLIYWASTRESGVPDRFTGSGSGTDFTLTISSVQAEDLAVYYCHQYLSSYTFGGGTKLEIKR
In the case of B6, the “EC50 (read off the curve)” value was approximately 0.02 µg/mL in assay [5], approximately 0.03 µg/mL in assay [7], approximately 0.03 µg/mL in assay [1] and approximately 0.03 µg/mL in assay [2]. In addition, the binding result is recorded as “no binding (tested: log 4 ng/ml (10000 ng/ml))” in assay [6] and “no binding (tested: about log 4.3 ng/ml (about 20000 ng/ml))” in assay [8]. Further, the equilibrium dissociation constant (Kd) in assay [4] was found to be 0.0139 nM.
